How the values were obtained:
human RSPO2 [1] = biological target: T1, human RSPO2 (Homo sapiens, UniProt Q6UXX9); test: FACS screening of hybridoma supernatants on HEK-293 cells expressing FLAG-RSPO2furin-CD4TM-GFP; format: binding
T1 construct: followed by the furin-like domains of RSPO2 (aa 31-146); expressed in transfected cells; host or cells: HEK-293
Excerpt: Antibodies were generated against recombinant human RSPO2 protein amino acids 22-205 (R&D Systems, Minneapolis, Minn.). Mice (n=3) were immunized with RSPO2 protein using standard techniques. Sera from individual mice were screened against RSPO2 approximately 70 days after initial immunization using FACS analysis. The animal with the highest antibody titer was selected for final antigen boost after which spleen cells were isolated for hybridoma production. SP2/0 cells were used as fusion partners for the mouse spleen cells. Hybridoma cells were plated at 1 cell per well in 96 well plates, and the supernatants were screened against human RSPO2 by FACS analysis.
As described in Example 5, for FACS screening of anti-RSPO2 antibodies a chimeric fusion protein enabling cell surface expression of the N-terminal furin-like domains of human RSPO2 was constructed. Similar to what is depicted in FIG. 5A for RSPO1, the RSPO2 fusion protein contains a N-terminal FLAG tag, followed by the furin-like domains of RSPO2 (aa 31-146) and fused to the transmembrane and intracellular domain of human CD4 and a C-terminal green fluorescent protein tag (FLAG-RSPO2furin-CD4TM-GFP).
HEK-293 cells were transfected with FLAG-RSPO2furin-CD4TM-GFP. […] The cells were analyzed on a FACSCalibur instrument (BD Biosciences, San Jose, Calif.) and the data was processed using FlowJo software.

[2] = tested on: RSPO2-induced β-catenin signaling; test: TOPflash luciferase assay in HEK-293 cells, Wnt3a plus human RSPO2; format: cell-based; details: Wnt3a 5 ng/ml, RSPO2 10 ng/ml
Method: (§1) HEK-293 cells were transfected with a 6×TCF-luciferase reporter vector (TOPflash, Millipore, Billerica, Mass.). After 24-48 hrs, the transfected HEK-293 cells were incubated with a combination of Wnt3a (5 ng/ml) and human RSPO2 (10 ng/ml, R&D BioSystems) or human RSPO3 (10 ng/ml, R&D BioSystems) in the presence of anti-RSPO2 antibodies 130M23, 130M24, 130M25, 130M26, 130M27, and 130M28. Cells were incubated with a combination of Wnt3a and RSPO, Wnt3a only or with no addition as controls. The cells were incubated for 16 hours and luciferase activity was measured using Steady-Glo® Luciferase Assay System according to the manufacturer's instructions (Promega, Madison, Wis.).

[3] = tested on: β-catenin signaling induced by RSPO3; test: TOPflash luciferase assay in HEK-293 cells, Wnt3a plus human RSPO3; format: cell-based; details: Wnt3a 5 ng/ml, RSPO3 10 ng/ml
Method: as §1

binding of RSPO2 to LGR5 = biological target: T2, binding of RSPO2 to LGR5 (Homo sapiens, UniProt Q6UXX9); test: FACS: blocking of soluble RSPO2-Fc binding to LGR5 on HEK-293 cells; details: RSPO2-Fc 10 μg/ml
T2 construct: full-length human RSPO1, RSPO2, RSPO3 and RSPO4 were ligated in-frame to a human Fc region; made in house; host or cells: RSPO2-Fc: insect cells (baculovirus); LGR5 construct: transiently transfected HEK-293
T2 sequence (Q6UXX9 22-243 L186P): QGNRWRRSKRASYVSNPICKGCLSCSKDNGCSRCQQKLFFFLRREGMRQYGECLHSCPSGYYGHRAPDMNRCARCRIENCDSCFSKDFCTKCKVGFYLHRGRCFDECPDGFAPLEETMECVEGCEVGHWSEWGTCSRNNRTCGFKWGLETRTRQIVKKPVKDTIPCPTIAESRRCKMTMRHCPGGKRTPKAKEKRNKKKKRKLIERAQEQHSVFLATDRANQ
Method: HEK-293 cells were transiently transfected with the FLAG-LGR5-CD4TM-GFP construct (previously described in Example 2). After 48 hours, transfected cells were suspended in ice cold PBS containing 2% FBS and heparin and incubated on ice in the presence of RSPO2-Fc protein (10 μg/ml) and antibodies 130M23, 130M24, 130M25, 130M26, 130M27, and 130M28. A second incubation with 100 μl PE-conjugated anti-human Fc secondary antibody was performed to detect cells bound by the RSPO2-Fc fusion protein. The cells were analyzed on a FACSCalibur instrument (BD Biosciences, San Jose, Calif.) and the data was processed using FlowJo software.

β-catenin signaling = test: Luciferase assay in STF-293 cells with LU2 cells, lung tumor cell-conditioned medium and Wnt3a-L cell-conditioned medium; format: cell-based, human
Method: Conditioned medium from human lung tumor LU2 cells was prepared as described in Example 3 and soluble LGR5-Fc was produced as described in Example 2.
STF-293 cells were incubated with LU2 cells plus 25% lung tumor cell-conditioned medium plus 25% Wnt3a-L cell-conditioned medium. Antibody 130M23 and soluble LGR5-Fc were added to the cells in 5-fold serially dilutions from 50 μg/ml to 0.0006 μg/ml. An irrelevant monoclonal antibody, similarly diluted, and a control Fc fusion protein (50 ug/ml) were used as negative controls. The cells were incubated for 20 hours and luciferase activity was measured using Steady-Glo® Luciferase Assay System according to the manufacturer's instructions (Promega, Madison, Wis.).

[4] = tested on: PN31 pancreatic tumor cells; test: PN31 pancreatic tumor xenograft growth in NOD/SCID mice; format: in vivo; details: antibodies 15 mg/kg once a week, intraperitoneal
Method: Dissociated PN31 pancreatic tumor cells (1×10^5cells) were injected subcutaneously into the flanks of 6-8 week old NOD/SCID mice. Tumors were allowed to grow for 61 days until they reached an average volume of 120 mm^3. The mice were randomized (n=10 per group) and treated with anti-RSPO1 antibody 89M5, anti-RSPO2 antibody 130M23, gemcitabine, a combination of 89M5 and gemcitabine, a combination of 130M23 and gemcitabine, or control antibody 1B7.11. Antibodies were dosed at 15 mg/kg once a week, and gemcitabine was dosed at […] once a week. Administration of the antibodies and gemcitabine was performed via injection into the intraperitoneal cavity. Tumor growth was monitored and tumor volumes were measured with electronic calipers at specific time points. Data are expressed as mean±S.E.M.

[5] = tested on: PN7 pancreatic tumor cells; test: PN7 pancreatic tumor xenograft growth in NOD/SCID mice; format: in vivo
Method: Dissociated PN7 pancreatic tumor cells (1×10^5cells) were injected subcutaneously into the flanks of 6-8 week old NOD/SCID mice. Tumors were allowed to grow for 25 days until they reached an average volume of 130 mm^3. The mice were randomized (n=10 per group) and treated with anti-RSPO2 antibody 130M23, anti-FZD antibody 18R5, gemcitabine, a combination of 130M23 and gemcitabine, a combination of 18R5 and gemcitabine, a combination of 130M23 and 18R5, a combination of 130M23, 18R5 and gemcitabine, or control antibody 1B7.11. Anti-RSPO2 antibody 130M23 was dosed at 10 mg/kg once a week, anti-FZD antibody 18R5 was dosed at 20 mg/kg once a week, and gemcitabine was dosed at […] once a week. Administration of the antibodies and gemcitabine was performed via injection into the intraperitoneal cavity. Tumor growth was monitored and tumor volumes were measured with electronic calipers at specific time points. Data are expressed as mean±S.E.M. A parallel set of experiments included mice treated with a FZD8-Fc soluble receptor (10 mg/kg) in combination with gemcitabine and FZD8-Fc in combination with 130M23 and gemcitabine.

PN7 tumors = test: Serial transplantation of cells from treated PN7 tumors (tumorigenicity); format: in vivo, NOD-SCID mice; details: 90 cells injected, 40 days growth with no treatment; vs control antibody
Method: The PN7 tumors described above were processed to yield single cell suspensions. Mouse cells were depleted from the cell mixtures using biotinylated anti-H2K^d and anti-CD45 antibodies and streptavidin-conjugated magnetic beads. The remaining human tumor cells were serially transplanted into a new cohort of mice. 90 tumor cells from each treatment group were injected into the flanks of NOD-SCID mice (n=10 mice per group). Tumors were allowed to grow for 40 days with no treatment and tumor volumes were measured with electronic calipers.

human RSPO2 [6] = biological target: T1, human RSPO2; test: FACS binding of 130M23 and humanized 130M23 to HEK293 cells expressing FLAG-RSPO2furin-CD4TM-GFP; details: five-fold serial dilutions
Method: HEK293 cells were transiently transfected with an expression vector encoding FLAG-RSPO2furin-CD4TM-GFP. As described in Example 11, FLAG-RSPO2furin-CD4TM-GFP is a chimeric fusion protein enabling cell surface expression of the N-terminal furin-like domains of human RSPO2. FLAG-RSPO2furin-CD4TM-GFP transfected cells were incubated in the presence of anti-RSPO2 antibody 130M23 or humanized anti-RSPO2 antibody […]. Five-fold serial dilutions of each antibody were examined for their ability to bind to the RSPO2 expressing cells. The cells were stained with Phycoerythrin conjugated anti-IgG to reveal bound antibody. The cells were analyzed on a FACSCalibur instrument (BD Biosciences, San Jose, Calif.) and the data was processed using FlowJo software.

T1 sequence (Q6UXX9 31-146): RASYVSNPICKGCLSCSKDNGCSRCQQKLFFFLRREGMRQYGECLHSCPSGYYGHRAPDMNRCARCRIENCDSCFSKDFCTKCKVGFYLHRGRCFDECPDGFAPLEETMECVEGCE

B1: 130M23: anti-RSPO2 monoclonal antibody, hybridoma ATCC PTA-12021; variable regions SEQ ID NO:27 and SEQ ID NO:28 (antibody, V domains shown)
VH: EVKLVESGGGLVKPGGSLKFSCAASGFSFSSYAMSWVRQTPEKRLEWVASISSGGSTYYPDSVKGRFTISRDNVRNILYLQMSSLRSEDTAMYFCARGGDPGVYNGDYEDAMDYWGQGTSVTVSS
VL: DIVMTQSHKFMSTSVGDRVSITCKASQDVSSAVAWYQQKPGQSPKLLIYWASTRHTGVPDRFTNSGSGTDYTLTISSVQAEDLALYYCQQHYSTPWTFGGGTKLEIK
modifications: 130M23 Heavy chain variable region; 130M23 Light chain variable region
- binding to RSPO2 (FACS) (human RSPO2 [1]): bound
- effect on RSPO2-induced β-catenin signaling [2]: completely blocked
- blocking of β-catenin signaling induced by RSPO3 [3]: did not block
- blocking of binding of RSPO2 to LGR5 (binding of RSPO2 to LGR5): blocked
- induction of luciferase activity by lung tumor cell-conditioned medium and Wnt3a-conditioned medium (β-catenin signaling; increasing concentrations, 50 to 0.0006 μg/ml): reduced
- potency relative to LGR5-Fc (β-catenin signaling; more potent than LGR5-Fc): greater than 100 fold
- effect on tumor growth as single agents [4]: only a minimal effect
- proliferation (anti-Ki67 antibody IHC) ([5]; PN7 tumors of treated mice): significant decrease in proliferation
- morphology of PN7 tumors (IHC) ([5]; treated vs untreated mice): induced morphological changes
- reduction in tumor growth ([5]; vs control antibody, 130M23 10 mg/kg, 18R5 20 mg/kg, gemcitabine once a week, intraperitoneal): approximately 55%
- tumorigenicity of cells isolated from treated mice (PN7 tumors): greatly decreased tumorigenicity
- binding to human RSPO2 (FACS) (human RSPO2 [6]): bind
